We go through 13 molecules from US20130130379A1 (published 2013).

The target in assay [1] is parathyroid hormone receptor (PTHR1). Put plainly: Biacore (SPR); PTHR - CaCl2; the table names no quantity; upper end of the range.
For assay [2] the target is unchanged. Description: Biacore (SPR); PTHR - CaCl2; the table names no quantity; lower end of the range.
Assay [3] shares this target. Put plainly: Biacore (SPR); PTHR + CaCl2; the table names no quantity; lower end of the range.
The target is the same in assay [4]. Put plainly: Biacore (SPR); PTHR + CaCl2; the table names no quantity; upper end of the range.
Assay [5] deals with T1, Human CXCR4 (human, UniProt P61073-2 2-356).
T1 construct: also called hCXCR4
T1 sequence (P61073 other isoform, or with tags, fused parts or gaps): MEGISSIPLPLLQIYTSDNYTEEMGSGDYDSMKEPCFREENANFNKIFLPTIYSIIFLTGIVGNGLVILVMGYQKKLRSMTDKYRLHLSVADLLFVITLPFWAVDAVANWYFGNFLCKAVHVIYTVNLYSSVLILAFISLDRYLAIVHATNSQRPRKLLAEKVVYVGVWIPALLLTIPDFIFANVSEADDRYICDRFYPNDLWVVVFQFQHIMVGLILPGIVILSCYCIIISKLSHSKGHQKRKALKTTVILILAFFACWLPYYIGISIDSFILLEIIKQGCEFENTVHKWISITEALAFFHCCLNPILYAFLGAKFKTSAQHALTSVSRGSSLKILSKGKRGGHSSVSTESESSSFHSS
Put plainly: membrane binding experiments, displacement of 125I-CXCL12.

Assay [6] concerns the target T1, Human CXCR4. Put plainly: displacement of [125I]-CXCL12, membranes from HEK293T cells transiently expressing CXCR4; n=4.
The next assay deals with T2, Human CXCR7 (human, UniProt P25106 1-362).
T2 construct: also called hCXCR7
T2 sequence (P25106 whole entry): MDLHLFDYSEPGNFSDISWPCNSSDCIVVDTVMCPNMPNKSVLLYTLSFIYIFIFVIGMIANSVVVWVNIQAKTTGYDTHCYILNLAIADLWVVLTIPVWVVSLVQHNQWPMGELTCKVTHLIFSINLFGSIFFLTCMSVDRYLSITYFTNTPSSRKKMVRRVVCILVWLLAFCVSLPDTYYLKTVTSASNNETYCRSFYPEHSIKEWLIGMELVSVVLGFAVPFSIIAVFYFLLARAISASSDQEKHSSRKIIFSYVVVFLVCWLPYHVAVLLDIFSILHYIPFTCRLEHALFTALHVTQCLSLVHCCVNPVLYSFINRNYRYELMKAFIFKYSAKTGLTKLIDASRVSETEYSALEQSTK
Description: phage ELISA and FACS.

In assay [7] the target is parathyroid hormone receptor (PTHR1). Description: Biacore (SPR); PTHR - CaCl2; the table names no quantity.
The target in assay [8] is Cannabinoid Receptor 1 (CB1R). Description: Biacore (SPR); the table names no quantity, heading 'Binding of clones against CB1R'.
Chain of Cannabinoid Receptor 1 (CB1R) (P47746 whole entry): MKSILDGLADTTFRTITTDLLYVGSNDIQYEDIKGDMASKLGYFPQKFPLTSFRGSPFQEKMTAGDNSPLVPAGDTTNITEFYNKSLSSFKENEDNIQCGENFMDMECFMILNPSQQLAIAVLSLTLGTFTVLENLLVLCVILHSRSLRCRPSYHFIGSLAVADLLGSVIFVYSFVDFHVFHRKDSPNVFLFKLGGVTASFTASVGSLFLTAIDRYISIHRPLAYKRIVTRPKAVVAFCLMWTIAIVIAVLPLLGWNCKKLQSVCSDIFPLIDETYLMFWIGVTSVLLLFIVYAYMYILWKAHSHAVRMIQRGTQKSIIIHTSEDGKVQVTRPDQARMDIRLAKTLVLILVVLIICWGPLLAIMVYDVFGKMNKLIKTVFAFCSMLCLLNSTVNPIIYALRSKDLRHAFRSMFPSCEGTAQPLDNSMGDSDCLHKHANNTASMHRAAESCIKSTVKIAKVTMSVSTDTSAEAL
The target of assay [9] is parathyroid hormone receptor (PTHR1). Description: Biacore (SPR); PTHR + CaCl2; the table names no quantity.
For assay [10] the target is unchanged. Description: Biacore (SPR); PTHR Fos12; the table names no quantity.

Chain of parathyroid hormone receptor (PTHR1) (Q03431 27-593): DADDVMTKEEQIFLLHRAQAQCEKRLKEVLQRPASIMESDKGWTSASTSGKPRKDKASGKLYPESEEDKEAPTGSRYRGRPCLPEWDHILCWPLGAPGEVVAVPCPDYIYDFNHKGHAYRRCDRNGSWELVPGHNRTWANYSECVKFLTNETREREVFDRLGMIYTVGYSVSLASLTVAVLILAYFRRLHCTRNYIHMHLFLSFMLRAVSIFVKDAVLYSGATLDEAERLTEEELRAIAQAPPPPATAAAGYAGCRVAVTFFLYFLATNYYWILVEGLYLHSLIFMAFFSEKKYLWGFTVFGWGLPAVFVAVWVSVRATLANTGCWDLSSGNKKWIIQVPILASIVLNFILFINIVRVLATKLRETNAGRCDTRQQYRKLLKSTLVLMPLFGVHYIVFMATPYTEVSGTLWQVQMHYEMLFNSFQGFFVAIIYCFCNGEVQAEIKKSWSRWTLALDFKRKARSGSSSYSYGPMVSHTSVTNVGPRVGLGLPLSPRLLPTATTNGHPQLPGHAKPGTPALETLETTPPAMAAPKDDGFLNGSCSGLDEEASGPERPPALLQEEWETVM

For “PTH (1-34) (ligand) (from UniProt P01270 32-65) (peptide)”, the Kd in [1] fell in the range of 4 to 23 nM; in assay [2], 4 to 23 nM; in [3], 0.2 to 16 nM; in assay [4], 0.2 to 16 nM.

With mAb 12G5 (antibody), the displacement of radiolabeled 125I-CXCL12 with Human CXCR4 [5] came out at 50%.

B1: 238D4-20GS-238D4 (VHH)
chain: EVQLMESGGGLVQAGGSLRLSCAASGRTFNNYAMGWFRRAPGKEREFVAAITRSGVRSGVSAIYGDSVKDRFTISRDNAKNTLYLQMNSLKPEDTAVYTCAASAIGSGALRRFEYDYSGQGTQVTVSSGGGGSGGGGSGGGGSGGGGSEVQLMESGGGLVQAGGSLRLSCAASGRTFNNYAMGWFRRAPGKEREFVAAITRSGVRSGVSAIYGDSVKDRFTISRDNAKNTLYLQMNSLKPEDTAVYTCAASAIGSGALRRFEYDYSGQGTQVTVSS
notes: also called L13
Molecule B1 registered a Ki with Human CXCR4 [6] of 1 nM.

B2: 08A10 (VHH)
VHH: EVQLVESGGGLVQAGGSLRLSCAASGSIFSIAAMGWYRQATGKQRELVATITDGGTTTYADSVKGRVTISRDRSANTVYLAMNNLKPDDTAVYYCYAYLRYTSRVPGDNYWGQGTQVTVSS
notes: Group 2 anti-CXCR7 Nanobody; also called Nanobody 08A10
Regarding B2, the binding result with Human CXCR7 is given as “binds”.

B3: PMPLG23-A3 (VHH)
VHH: EVQLVESGGGLVQAGGSLRLSCAASGLTFSNYAMGWFRQAPGKEREWVASINWSGGSTYYEDSVEGRFTISRDNAKNTVNLQMNSLKPEDTAVYYCAAKRGHYSREYDYWGQGTQVTVSS
In assay [7], B3 displayed a Kd of 22 nM.

B4: 08A05 (VHH)
VHH: EVQLVESGGGLVQAGDSLRLSCAASGLTFSNYDMGWFRQAPGKEREFVGASWWSGGAPYYSDSVKGRFTISRDNAKNTVYLQANSLRPEDTAVYYCAAKRLRSFASGGSYDYWGQGTQVTVSS
notes: Group 2 anti-CXCR7 Nanobody; also called Nanobody 08A05
For the molecule B4, the binding result with Human CXCR7 is given as “binds”.

B5: LGPMP6_H4 (VHH)
VHH: EVQLVESGGGLVQAGGSLRLACAASGSIFSFNAMGWYRQAPGKQRELLAVITRDGITKYADSVKGRFTISRDNAKNTMYLQMNSLKPEDTAVYYCHTGLPTGRGSHSDYWGQGTQVTVSS
On to B5, for which the Kd in assay [8] is 36 nM.

B6: PMPLG22-A3 (VHH)
VHH: EVQLVESGGGLVQAGGSLRLSCAASGNIFANNIMGWYRQPPGKEREFVAHVSHDGDSMYAVSVKGRFAISRKDATNLYLQMNSLKPEDTAIYFCRLLNIPTQGRMEGFWGQGTQVTVSS
B6: the figures for the Kd in assay [7] and in assay [9] were 17 nM and 9 nM, respectively.

B7: LGPMP6_B7 (VHH)
VHH: EVQLVESGGGLVQAGGSLRLSCAASGRTLRNYDMGWFRQAPGKEREFVATIRWSTSETYYADSVKGRFTISSDNAKNTVDLQMNSLTPGDTGVYYCAARSVYSYDYNYWGQGTQVTVSS
In the case of B7, the Kd in assay [8] turned out to be 12 nM.

B8: LGPMP5_G11 (VHH)
VHH: EVQLVKSGGGLVQAGGSLRLSCAASGRTLSNYDMGWFRQAPGKEREFVATIRWSTGETYYTDSVKGRFTISKDNTKNTVDLQMNSLTPEDTAVYYCASRSVYSYEYNYWGQGTQVTVSS
In assay [8], B8 displayed a Kd of 12 nM.

B9: PMPLG26-F2 (VHH)
VHH: EVQLVESGGGLVQAGGSLRLSCVASGFSFDDYAIGWFRQAPGQDREPLACITSGGTRNYNPSVMARFRIDRDNSVKTVYLQINTLKPEDTAVYYCSTELDRQGGSAHECREYDTWGQGTQVTVSS
With B9, the results for the Kd in assay [10] and in [9] were 360 nM and 70 nM, respectively.

B10: PMPLG26-A6 (VHH)
VHH: EVQLVESGGGLVQAGGSLRLSCAASRSRSSFDDMGWYRQAPGKQREFVGGITLGGSTIYADSVKGRFTISMDSARNTGYLQMNSLKPEDTAVYYCNAALDGYSGSSWGQGTQVTVSS
Turning to B10, the Kd in assay [7] came to 17 nM.

B11: 01C10 (VHH)
VHH: EVQLVESGGGLVQTGASLRLSCAASGRTFSNYAMGWFRQAPGKERERVAAITPRAFTTYYADSVKGRFTISRDNAKNTAYLQMVSLKPEDTAVYYCAAQLVGSGSNLGRQESYAYWGQGTQVTVSS
notes: Group 1 anti-CXCR7 Nanobody; also called Nanobody 01C10
In the case of B11, in the assay with Human CXCR7, the binding result is recorded as “binds”.
